Results on three molecules are retold here after US20160145321A1.

The target in assay [1] is T1, Sym-1706 (RSV G central conserved domain (CCD) peptide, type A 145-184) (Respiratory syncytial virus type A). Kind of assay: BLI (Octet Red384), biotinylated peptide on streptavidin sensor tips.
Assay [2] has as its target T2, Sym-1788 (RSV-G type B central region peptide 145-201) (Respiratory syncytial virus type B). Described as above.
Assay [3] has as its target T3, Sym-1705 (RSV-G type A central region peptide 145-201) (Respiratory syncytial virus type A). The description is as above.
The target in assay [4] is T4, Sym-1789 (RSV-G type B central region peptide 145-184) (Respiratory syncytial virus type B). The assay is described as above.
The target of assay [5] is T1, Sym-1706 (RSV G central conserved …). As to the kind of experiment: ELISA, antibody titrated on biotinylated peptide on avidin plates (FIG. 3). On the technique in general: An ELISA detects its analyte on a solid surface through an enzyme-linked reagent.
The target of assay [6] is T2, Sym-1788 (RSV-G type B central region …). The assay is described as above.
In assay [7] the target is T3, Sym-1705 (RSV-G type A central region …). The assay is described as above.
For assay [8], the target named is T4, Sym-1789 (RSV-G type B central region …). The description is as above.
Assay [9] addresses G protein of RSV A/Long (virus, ATCC Cat. No. VR-26) (Respiratory syncytial virus A/Long) (UniProt P20895). Kind of assay: cell-based or functional assay.

B1: CB010.7 (antibody, V domains shown)
VH: QVQLVESGGGVVQPGRSLRLSCAASGFTFNTHGMHWVRQAPGKGLEWVAVMSYDGTKKYHADSVKGRFTISRDNSKNTLYLQMNSLRVEDTAIYYCAKVGELRSFDWLLADGTAYYYYGMDVWGQGTTVTVSS
VL: not shown
Broadly, the IC50 is the concentration at which inhibition is half-maximal. Turning to B1, the binding response (Octet) [RU] was found to be 1.74 RU in assay [1], 1.94 RU in assay [2], 1.25 RU in [3] and 2.96 RU in assay [4]. For the same molecule, the IC50 in [5], in [6], in assay [7] and in assay [8] was 0.02 mg/L throughout.

B2: CB003.1 (antibody, V domains shown)
VH: QVQLVQSGPELRKPGASVTVSCKASGYTFTTYYIHWVRQAPGGGLDWMGMINTGSGVTSYAQKFQGRVAMTRDTSTSTVFMELSSLRFEDTALYYCARMYSGSWYPFDYWGQGALVTVSS
VL: EIVLTQSPGTLSLSPGERATLSCRASQNINGNYLAWYQQKPGLAPRLLIYEASSRATGIPDRFSGSGSGTDFTLTISSLEPEDFGVYYCQQYGTSPFFTFGPGTKVDIK
Turning to B2, the binding response (Octet) [RU] is 3.36 RU in assay [1], 3.28 RU in [2], 3.48 RU in [3] and 3.2 RU in [4]. Besides, the IC50 in assay [5], in assay [6], in assay [7] and in assay [8] was 0.02 mg/L throughout.

B3: CR9505 (an antibody based on 131-2G, comprising the heavy and light chain variable region of 131-2G) (antibody, from another filing, V domains shown)
VH: EVQLQQSGPELVKPGTSVKISCKASGYSFTGFTMNWVKQSHGKNLEWFGLINPFNGNTGYNQKFKGKATLTVDKSSSTAFMELLSLTSEDSAVYYCARSGKSYDYEAWFTYWGQGTLVTVSA
VL: DIVMTQTTLSLPVSLGNQASISCRSSQTIVHTNGNTYLEWYLQKPGQSPKLLIYKVSNRFSGVPDRFSGSGSGTDFILNISRVEAEDLGVYYCFQGSHVPFTFGSGTKLEIKR
B3: the Neutralization IC50 (plaque reduction assay, Vero cells) in [9] was 0.018 mg/L.
